Results: article doi:10.1101/504373, “Pyrophosphate modulates stress responses via SUMOylation” (bioRxiv, 2018)

Molecular target: the molecule itself
Experiment: immunoblot after SDS-PAGE of extracts made without DTT; total seedling protein extracted in the presence of NEM to inhibit deSUMOylation; anti-ICE1; both bands absent in ice1-2; monomer (50kD) only with DTT (5 mM) and without NEM

B1: INDUCER OF CBF EXPRESSION 1 (ICE1) (natural protein, UniProt Q9LSE2 1-494, looked up)
chain: MGLDGNNGGGVWLNGGGGEREENEEGSWGRNQEDGSSQFKPMLEGDWFSSNQPHPQDLQMLQNQPDFRYFGGFPFNPNDNLLLQHSIDSSSSCSPSQAFSLDPSQQNQFLSTNNNKGCLLNVPSSANPFDNAFEFGSESGFLNQIHAPISMGFGSLTQLGNRDLSSVPDFLSARSLLAPESNNNNTMLCGGFTAPLELEGFGSPANGGFVGNRAKVLKPLEVLASSGAQPTLFQKRAAMRQSSGSKMGNSESSGMRRFSDDGDMDETGIEVSGLNYESDEINESGKAAESVQIGGGGKGKKKGMPAKNLMAERRRRKKLNDRLYMLRSVVPKISKMDRASILGDAIDYLKELLQRINDLHNELESTPPGSLPPTSSSFHPLTPTPQTLSCRVKEELCPSSLPSPKGQQARVEVRLREGRAVNIHMFCGRRPGLLLATMKALDNLGLDVQQAVISCFNGFALDVFRAEQCQEGQEILPDQIKAVLFDTAGYAGMI
notes: Two bands were seen, a non-modified (100kD) and a modified (130kD) dimer; source: endogenous, total protein extract of liquid grown Col-0 seedlings
B1 was tested, and the “stoichiometry N” value was 2.
